Several values for one entry are separate records, joined by “and”; a condition that tells them apart may be missing. Equal values may be shown once.

In this experiment the target is IgE-GLT1-NP (IgE leader, lumazine synthase, linker, eOD-GT8; self-assembling 60mer nanoparticle) (Aquifex aeolicus lumazine synthase fused to HIV-1 gp120 fragment). The experiment can be described thus: immunogold TEM of muscle sections from mice immunized with DNA-encoded IgE-GLT1-NP (VRC01 + anti-human 6 nm gold).

As for VRC01 antibody (NIH AIDS Reagent), the visible copies of VRC01 binding was 11 copies and 17 copies.

Source of the values: patent US20220047695A1.
